Paper PMC6917717, “YtfK activates the stringent response by triggering the alarmone synthetase SpoT in Escherichia coli” (Nature Communications, 2019)

Target: T1, SpoT catalytic domains (SpoT^1-378) (E. coli, UniProt P0AG24 1-378)
T1 construct: SpoT, E. coli, residues 1-378 (catalytic domains: hydrolase and synthetase); no cleavage is described; also called SpoT^1–378-6His; recombinant SpoT^1–378
Experiment: BLI; biotinylated YtfK (2.5 µM) on streptavidin biosensors; SpoT1-378 (5-80 µM) or RelA1-396 (40-120 µM) as analyte; BLItz, 25 °C; 50 mM Tris-HCl pH 8.0, 500 mM NaCl, 500 mM KCl, 2 mM β-mercaptoethanol, glycerol 2%, BSA 1 mg/ml; KD estimated from responses 10 s before the end of association, one-site fit
Details: both partners purified

T1 sequence (P0AG24 1-378): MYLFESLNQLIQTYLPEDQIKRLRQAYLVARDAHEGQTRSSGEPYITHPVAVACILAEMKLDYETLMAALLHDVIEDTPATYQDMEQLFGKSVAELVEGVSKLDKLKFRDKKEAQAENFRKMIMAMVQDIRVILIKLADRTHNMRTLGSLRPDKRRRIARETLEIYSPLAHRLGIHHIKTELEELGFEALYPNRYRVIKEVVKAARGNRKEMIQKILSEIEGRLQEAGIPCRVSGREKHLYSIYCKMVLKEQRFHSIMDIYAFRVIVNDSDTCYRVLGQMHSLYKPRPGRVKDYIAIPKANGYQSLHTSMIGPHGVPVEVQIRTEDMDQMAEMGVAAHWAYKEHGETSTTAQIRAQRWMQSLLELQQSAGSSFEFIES

Kd: 35 µM
B1: YtfK, purified, biotinylated (natural protein)
chain: not shown
modifications: biotin (EZ-Link NHS-PEG4-Biotin, 1:1 ratio of YtfK and biotin)
notes: YtfK, E. coli; ytfK gene amplified from E. coli chromosomal DNA and cloned in pET28a+-TRX (thioredoxin-6his-tev); the TRX-6His-TEV cassette (NcoI/BamHI) lies upstream of ytfK (BamHI/HindIII), so residues from the TEV site and cloning site may remain at the N-terminus; also called Untagged YtfK; biotinylated YtfK
